Biological target: cardiac ryanodine receptor (RyR2) (rat (endogenous in neonatal ventricular cardiomyocytes)) (UniProt B0LPN4)
UniProt B0LPN4, sequence (B0LPN4 whole entry): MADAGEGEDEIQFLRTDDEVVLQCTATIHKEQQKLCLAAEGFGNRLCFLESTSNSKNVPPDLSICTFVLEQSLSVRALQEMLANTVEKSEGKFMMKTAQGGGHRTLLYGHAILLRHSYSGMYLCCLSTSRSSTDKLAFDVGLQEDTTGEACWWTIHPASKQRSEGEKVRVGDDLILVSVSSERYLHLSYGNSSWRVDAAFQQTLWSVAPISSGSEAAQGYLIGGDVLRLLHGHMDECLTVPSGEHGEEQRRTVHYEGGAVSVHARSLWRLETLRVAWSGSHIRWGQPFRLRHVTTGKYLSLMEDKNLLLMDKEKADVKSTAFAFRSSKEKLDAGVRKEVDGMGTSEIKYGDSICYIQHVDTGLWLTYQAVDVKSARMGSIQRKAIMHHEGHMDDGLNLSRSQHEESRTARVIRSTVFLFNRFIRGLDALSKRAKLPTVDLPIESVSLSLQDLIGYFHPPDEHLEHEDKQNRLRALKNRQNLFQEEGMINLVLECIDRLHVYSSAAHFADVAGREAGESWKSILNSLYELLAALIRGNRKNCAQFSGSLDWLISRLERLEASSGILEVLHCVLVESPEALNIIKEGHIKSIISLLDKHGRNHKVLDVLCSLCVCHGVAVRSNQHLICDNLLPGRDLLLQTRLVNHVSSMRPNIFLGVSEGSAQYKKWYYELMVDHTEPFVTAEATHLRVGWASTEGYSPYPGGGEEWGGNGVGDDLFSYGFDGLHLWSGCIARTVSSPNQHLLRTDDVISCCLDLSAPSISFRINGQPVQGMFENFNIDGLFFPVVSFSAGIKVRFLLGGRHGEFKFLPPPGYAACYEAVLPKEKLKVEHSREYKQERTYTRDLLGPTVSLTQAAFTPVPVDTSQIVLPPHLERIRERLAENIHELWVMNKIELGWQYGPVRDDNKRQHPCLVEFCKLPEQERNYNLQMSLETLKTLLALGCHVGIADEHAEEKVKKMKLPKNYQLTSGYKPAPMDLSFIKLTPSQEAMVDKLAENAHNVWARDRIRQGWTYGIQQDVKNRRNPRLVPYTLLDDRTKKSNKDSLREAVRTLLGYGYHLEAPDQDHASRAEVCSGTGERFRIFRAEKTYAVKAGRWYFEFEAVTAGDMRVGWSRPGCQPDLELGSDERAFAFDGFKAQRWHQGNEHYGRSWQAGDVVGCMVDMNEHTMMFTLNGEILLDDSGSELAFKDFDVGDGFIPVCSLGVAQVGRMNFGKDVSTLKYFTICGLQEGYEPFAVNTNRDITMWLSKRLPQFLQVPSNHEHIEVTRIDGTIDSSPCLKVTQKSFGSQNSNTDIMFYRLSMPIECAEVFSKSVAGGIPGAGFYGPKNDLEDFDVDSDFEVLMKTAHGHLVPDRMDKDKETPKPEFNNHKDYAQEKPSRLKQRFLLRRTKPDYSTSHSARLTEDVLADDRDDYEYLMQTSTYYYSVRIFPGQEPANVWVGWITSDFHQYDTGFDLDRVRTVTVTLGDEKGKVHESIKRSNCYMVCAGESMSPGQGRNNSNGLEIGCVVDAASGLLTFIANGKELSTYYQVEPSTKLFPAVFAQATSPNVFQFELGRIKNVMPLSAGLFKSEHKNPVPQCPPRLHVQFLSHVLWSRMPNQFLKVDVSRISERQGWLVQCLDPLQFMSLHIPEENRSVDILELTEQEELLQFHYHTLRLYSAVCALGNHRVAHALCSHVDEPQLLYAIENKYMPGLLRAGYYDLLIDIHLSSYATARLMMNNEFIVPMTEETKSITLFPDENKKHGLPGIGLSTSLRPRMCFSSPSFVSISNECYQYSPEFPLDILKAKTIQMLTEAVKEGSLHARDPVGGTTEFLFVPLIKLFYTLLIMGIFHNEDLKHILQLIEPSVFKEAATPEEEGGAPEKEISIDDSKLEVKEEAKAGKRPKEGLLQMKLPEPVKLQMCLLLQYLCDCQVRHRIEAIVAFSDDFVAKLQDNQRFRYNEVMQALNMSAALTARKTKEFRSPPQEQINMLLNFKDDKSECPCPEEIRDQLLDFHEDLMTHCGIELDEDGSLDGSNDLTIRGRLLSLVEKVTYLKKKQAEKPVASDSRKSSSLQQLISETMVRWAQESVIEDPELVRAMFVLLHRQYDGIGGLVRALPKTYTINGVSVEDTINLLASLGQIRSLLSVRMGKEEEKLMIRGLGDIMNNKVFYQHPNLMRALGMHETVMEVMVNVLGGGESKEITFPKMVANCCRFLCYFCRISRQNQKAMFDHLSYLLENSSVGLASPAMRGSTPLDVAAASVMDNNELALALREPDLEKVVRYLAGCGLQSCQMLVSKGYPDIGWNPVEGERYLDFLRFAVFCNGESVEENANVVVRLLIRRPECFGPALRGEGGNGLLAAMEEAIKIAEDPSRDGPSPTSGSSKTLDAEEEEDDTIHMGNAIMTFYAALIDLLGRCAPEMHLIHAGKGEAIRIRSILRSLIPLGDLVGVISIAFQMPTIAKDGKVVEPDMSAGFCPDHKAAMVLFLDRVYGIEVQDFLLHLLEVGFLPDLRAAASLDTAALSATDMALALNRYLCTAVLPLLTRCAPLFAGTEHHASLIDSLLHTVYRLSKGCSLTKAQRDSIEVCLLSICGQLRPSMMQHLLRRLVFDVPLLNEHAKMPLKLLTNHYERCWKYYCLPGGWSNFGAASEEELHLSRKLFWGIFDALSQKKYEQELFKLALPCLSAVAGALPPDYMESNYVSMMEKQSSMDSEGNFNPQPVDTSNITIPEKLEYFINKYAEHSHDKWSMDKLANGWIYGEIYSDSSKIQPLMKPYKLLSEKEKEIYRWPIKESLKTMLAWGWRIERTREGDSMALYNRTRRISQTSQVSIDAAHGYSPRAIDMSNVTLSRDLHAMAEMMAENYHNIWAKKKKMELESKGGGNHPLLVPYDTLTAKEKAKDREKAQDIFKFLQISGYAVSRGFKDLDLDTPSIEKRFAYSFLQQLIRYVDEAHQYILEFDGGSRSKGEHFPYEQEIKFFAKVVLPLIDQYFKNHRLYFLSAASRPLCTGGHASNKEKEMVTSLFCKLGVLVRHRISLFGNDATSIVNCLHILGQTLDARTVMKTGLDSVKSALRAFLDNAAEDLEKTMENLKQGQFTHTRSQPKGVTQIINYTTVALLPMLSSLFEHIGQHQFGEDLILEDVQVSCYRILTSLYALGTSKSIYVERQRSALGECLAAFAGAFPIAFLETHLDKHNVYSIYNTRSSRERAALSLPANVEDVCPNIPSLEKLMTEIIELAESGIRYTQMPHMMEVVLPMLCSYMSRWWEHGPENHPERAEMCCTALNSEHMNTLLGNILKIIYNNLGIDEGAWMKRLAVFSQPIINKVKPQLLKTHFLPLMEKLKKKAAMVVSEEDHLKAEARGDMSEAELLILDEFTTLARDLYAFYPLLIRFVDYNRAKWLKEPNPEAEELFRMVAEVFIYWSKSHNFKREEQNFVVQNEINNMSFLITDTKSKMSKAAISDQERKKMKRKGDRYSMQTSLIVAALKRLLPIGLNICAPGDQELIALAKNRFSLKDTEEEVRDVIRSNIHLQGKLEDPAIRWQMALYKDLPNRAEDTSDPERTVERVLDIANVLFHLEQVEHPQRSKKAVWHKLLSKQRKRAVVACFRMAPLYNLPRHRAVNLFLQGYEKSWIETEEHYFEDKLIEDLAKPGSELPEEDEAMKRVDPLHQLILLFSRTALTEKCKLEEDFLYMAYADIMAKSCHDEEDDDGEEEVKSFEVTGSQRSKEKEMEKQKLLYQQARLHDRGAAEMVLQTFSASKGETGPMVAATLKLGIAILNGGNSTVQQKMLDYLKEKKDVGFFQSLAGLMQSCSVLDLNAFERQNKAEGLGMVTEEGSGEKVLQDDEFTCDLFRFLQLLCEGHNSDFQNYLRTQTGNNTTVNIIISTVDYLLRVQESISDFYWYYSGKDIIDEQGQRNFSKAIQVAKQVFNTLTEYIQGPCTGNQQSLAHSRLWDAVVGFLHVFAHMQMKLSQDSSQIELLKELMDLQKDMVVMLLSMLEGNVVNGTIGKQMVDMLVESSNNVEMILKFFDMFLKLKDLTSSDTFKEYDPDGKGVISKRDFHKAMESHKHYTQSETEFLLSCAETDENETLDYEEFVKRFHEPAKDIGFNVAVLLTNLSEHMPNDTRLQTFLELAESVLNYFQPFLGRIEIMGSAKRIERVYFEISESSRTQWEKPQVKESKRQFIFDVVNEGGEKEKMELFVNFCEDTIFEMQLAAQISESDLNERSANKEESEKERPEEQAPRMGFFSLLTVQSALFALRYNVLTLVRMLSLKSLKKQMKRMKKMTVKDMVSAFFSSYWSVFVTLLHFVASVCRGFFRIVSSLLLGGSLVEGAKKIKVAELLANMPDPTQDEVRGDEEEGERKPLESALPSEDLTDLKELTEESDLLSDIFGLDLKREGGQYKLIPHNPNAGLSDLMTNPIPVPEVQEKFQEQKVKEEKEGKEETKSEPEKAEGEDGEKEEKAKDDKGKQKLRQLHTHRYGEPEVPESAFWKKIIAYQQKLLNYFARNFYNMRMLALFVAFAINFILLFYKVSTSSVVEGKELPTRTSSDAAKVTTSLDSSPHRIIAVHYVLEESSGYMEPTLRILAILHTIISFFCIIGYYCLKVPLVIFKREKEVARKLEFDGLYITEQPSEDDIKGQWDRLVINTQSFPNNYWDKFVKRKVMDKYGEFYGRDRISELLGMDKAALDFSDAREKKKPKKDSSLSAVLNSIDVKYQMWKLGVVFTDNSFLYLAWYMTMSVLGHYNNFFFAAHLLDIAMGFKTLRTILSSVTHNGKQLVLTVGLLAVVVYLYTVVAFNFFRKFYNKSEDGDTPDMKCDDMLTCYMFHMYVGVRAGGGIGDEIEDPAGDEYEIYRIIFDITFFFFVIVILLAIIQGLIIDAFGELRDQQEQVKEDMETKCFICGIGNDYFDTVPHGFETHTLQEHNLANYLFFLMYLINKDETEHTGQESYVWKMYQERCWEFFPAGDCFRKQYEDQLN

B1: C-terminal half of GSTM2 (GSTM2C) (domain or fragment)
chain: PMTLGYWNIRGLAHSIRLLLEYTDSSYEEKKYTMGDAPDYDRSQWLNEKFKLGLDFPNLPYLIDGTHKITQSNAILRYIARKHNLCGESEKEQIREDILENQFMDSRMQLAKLCYDPDFEKLKPEYLQALPEMLKLYSQFLGKQPWFLGDKITFVDFIAYDVLERNQVFEPSCLDAFPNLKDFISRFEGLEKISAYMKSSRFLPRPVFTKMAVWGNK
- field-stimulated myocyte shortening after 2 h with 5, 10 and 15 uM GSTM2C, as percent of control (3.0%, 10.9% and 42.8%); significant only at 15 uM: 42.8 % of control

From article PMC5017731
